In patent US20070077617:

What was measured:
[1] = target: fusion protein PRI
[2] = target: fusion protein PRM
[3] = target: fusion protein PRK
[4] = target: fusion protein PRL
[5] = target: fusion protein PRP
[6] = target: fusion protein PRE
[7] = target: fusion protein PRW
[8] = target: fusion protein PRD
[9] = target: fusion protein PRC
[10] = target: fusion protein PRS
[11] = target: fusion protein PRF
[12] = target: fusion protein PRQ
[13] = target: fusion protein PRA
[14] = target: fusion protein PRG
Sequence of fusion protein PRG (chain, as listed by the source): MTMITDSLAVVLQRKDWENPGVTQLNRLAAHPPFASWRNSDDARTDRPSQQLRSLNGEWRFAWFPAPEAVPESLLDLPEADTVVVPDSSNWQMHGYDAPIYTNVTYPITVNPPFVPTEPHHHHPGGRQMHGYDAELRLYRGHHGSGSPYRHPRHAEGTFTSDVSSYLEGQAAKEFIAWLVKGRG

[15] = target: fusion protein PRT
Sequence of fusion protein PRT (chain, as listed by the source): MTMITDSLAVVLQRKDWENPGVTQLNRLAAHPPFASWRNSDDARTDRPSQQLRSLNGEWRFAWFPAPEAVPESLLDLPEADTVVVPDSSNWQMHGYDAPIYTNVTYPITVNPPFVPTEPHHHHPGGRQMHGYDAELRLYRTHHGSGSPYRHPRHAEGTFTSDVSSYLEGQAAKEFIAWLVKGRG

[16] = target: fusion protein PRY
Sequence of fusion protein PRY (chain, as listed by the source): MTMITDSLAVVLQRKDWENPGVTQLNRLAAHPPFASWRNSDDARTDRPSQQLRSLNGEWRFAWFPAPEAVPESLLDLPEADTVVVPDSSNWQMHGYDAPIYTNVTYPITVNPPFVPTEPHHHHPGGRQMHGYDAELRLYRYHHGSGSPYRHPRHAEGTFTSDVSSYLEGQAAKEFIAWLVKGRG

[17] = target: fusion protein PRH
Sequence of fusion protein PRH (chain, as listed by the source): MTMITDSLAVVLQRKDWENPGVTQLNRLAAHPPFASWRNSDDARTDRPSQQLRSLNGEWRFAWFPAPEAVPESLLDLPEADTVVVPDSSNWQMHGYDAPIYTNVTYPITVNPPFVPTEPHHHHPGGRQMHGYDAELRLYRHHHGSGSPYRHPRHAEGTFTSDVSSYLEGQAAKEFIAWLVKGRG

[18] = target: fusion protein PRN
Sequence of fusion protein PRN (chain, as listed by the source): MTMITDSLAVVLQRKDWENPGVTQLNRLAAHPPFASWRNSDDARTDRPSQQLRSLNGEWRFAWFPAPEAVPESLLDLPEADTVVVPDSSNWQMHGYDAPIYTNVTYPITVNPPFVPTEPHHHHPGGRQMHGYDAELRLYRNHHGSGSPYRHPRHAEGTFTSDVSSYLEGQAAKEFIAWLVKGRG

[19] = target: fusion protein PRR
Sequence of fusion protein PRR (chain, as listed by the source): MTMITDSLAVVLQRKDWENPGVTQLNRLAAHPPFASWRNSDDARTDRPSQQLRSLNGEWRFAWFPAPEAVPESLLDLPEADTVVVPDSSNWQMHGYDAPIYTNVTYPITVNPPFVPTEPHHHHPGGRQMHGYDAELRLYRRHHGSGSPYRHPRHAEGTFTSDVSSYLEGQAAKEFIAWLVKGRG

Sequence of fusion protein PRA (chain, as listed by the source): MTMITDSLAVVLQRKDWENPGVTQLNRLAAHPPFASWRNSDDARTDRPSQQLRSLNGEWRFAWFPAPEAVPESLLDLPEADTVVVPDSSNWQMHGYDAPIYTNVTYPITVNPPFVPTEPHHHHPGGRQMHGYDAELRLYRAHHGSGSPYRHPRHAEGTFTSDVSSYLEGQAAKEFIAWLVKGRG
Sequence of fusion protein PRQ (chain, as listed by the source): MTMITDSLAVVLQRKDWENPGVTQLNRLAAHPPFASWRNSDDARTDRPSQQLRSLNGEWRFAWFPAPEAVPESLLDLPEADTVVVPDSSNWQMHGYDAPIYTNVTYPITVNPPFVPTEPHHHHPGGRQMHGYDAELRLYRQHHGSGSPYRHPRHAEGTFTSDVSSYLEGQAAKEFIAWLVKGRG
Sequence of fusion protein PRM (chain, as listed by the source): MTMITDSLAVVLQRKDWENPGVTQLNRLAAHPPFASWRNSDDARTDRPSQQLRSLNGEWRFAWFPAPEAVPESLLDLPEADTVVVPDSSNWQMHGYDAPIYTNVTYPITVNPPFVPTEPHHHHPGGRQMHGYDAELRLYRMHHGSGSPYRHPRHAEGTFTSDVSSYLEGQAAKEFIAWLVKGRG
Sequence of fusion protein PRI (chain, as listed by the source): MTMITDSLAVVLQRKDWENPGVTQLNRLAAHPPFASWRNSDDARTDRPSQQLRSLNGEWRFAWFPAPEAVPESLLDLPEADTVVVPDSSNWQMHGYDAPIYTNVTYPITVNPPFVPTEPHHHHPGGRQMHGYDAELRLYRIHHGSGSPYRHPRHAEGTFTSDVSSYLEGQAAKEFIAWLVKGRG
Sequence of fusion protein PRC (chain, as listed by the source): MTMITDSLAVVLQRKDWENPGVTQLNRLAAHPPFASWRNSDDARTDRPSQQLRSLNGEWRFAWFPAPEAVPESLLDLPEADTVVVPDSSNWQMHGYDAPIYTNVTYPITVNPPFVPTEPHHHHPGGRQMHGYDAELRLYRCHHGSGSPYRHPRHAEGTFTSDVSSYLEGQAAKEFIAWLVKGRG
Sequence of fusion protein PRL (chain, as listed by the source): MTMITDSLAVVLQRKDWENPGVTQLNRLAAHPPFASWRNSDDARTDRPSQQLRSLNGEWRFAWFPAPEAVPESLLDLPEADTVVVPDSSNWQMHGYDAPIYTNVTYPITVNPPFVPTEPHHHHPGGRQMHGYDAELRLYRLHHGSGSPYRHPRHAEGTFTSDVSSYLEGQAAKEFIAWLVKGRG
Sequence of fusion protein PRS (chain, as listed by the source): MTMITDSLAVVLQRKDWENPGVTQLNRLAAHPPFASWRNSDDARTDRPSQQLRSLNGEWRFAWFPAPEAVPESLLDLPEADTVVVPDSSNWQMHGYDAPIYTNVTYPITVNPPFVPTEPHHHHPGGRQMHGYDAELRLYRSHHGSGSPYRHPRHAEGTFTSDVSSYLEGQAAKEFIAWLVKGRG
Sequence of fusion protein PRF (chain, as listed by the source): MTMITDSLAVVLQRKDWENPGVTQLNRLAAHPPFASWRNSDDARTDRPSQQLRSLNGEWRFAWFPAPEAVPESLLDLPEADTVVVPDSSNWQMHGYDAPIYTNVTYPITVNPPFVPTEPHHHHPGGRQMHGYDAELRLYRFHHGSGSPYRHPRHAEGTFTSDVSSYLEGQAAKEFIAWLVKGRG
Sequence of fusion protein PRW (chain, as listed by the source): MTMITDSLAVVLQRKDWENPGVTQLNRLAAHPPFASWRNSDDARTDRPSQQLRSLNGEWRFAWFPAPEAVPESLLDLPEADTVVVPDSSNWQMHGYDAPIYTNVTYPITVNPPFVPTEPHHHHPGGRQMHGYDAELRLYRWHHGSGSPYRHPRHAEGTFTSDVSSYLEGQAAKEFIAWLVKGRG
Sequence of fusion protein PRK (chain, as listed by the source): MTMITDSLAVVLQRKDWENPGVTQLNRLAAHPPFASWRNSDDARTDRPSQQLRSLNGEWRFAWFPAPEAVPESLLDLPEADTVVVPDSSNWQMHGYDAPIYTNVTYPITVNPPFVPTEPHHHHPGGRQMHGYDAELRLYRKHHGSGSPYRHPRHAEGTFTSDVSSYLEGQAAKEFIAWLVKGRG
Sequence of fusion protein PRD (chain, as listed by the source): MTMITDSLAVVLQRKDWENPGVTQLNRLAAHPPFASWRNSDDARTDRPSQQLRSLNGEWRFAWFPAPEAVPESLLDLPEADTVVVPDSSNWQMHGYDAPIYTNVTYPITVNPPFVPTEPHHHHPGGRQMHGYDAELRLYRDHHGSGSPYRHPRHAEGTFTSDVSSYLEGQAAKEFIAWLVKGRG
Sequence of fusion protein PRE (chain, as listed by the source): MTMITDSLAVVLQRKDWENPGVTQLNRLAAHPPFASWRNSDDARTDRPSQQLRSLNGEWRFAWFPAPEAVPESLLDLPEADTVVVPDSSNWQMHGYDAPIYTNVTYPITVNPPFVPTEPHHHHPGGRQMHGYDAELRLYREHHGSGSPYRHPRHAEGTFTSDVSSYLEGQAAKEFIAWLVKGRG

B1: OmpT protease variant OmpT D97Q (protein)
chain: STETLSFTPDNINADISLGTLSGKTKERVYLAEEGGRKVSQLDWKFNNAAIIKGAINWDLMPQISIGAAGWTTLGSRGGNMVDQDWMDSSNPGTWTQESRHPDTQLNYANEFDLNIKGWLLNEPNYRLGLMAGYQESRYSFTARGGSYIYSSEEGFRDDIGSFPNGERAIGYKQRFKMPYIGLTGSYRYEDFELGGTFKYSGWVESSDNDEHYDPGKRITYRSKVKDQNYYSVAVNAGYYVTPNAKVYVEGAWNRVTNKKGNTSLYDHNNNTSDYSKNGAGIENYNFITTAGLKYTF
relative cleavage efficiency [1]: < 3% | relative cleavage efficiency [2]: < 3% | relative cleavage efficiency [3]: < 3% | relative cleavage efficiency [4]: less than 3% | relative cleavage efficiency [5]: less than 3% | relative cleavage efficiency [6]: less than 3% | relative cleavage efficiency [7]: less than 3% | relative cleavage efficiency [8]: less than 3% | relative cleavage efficiency [9]: 4.1% | relative cleavage efficiency [10]: 4.4% | relative cleavage efficiency [11]: < 3% | relative cleavage efficiency [12]: less than 3% | relative cleavage efficiency [13]: 4% | relative cleavage efficiency [14]: less than 3% | relative cleavage efficiency [15]: < 3% | relative cleavage efficiency [16]: < 3% | relative cleavage efficiency [17]: less than 3% | relative cleavage efficiency [18]: < 3% | relative cleavage efficiency [19]: < 3%

B2: OmpT protease variant OmpT D97I (protein)
chain: STETLSFTPDNINADISLGTLSGKTKERVYLAEEGGRKVSQLDWKFNNAAIIKGAINWDLMPQISIGAAGWTTLGSRGGNMVDQDWMDSSNPGTWTIESRHPDTQLNYANEFDLNIKGWLLNEPNYRLGLMAGYQESRYSFTARGGSYIYSSEEGFRDDIGSFPNGERAIGYKQRFKMPYIGLTGSYRYEDFELGGTFKYSGWVESSDNDEHYDPGKRITYRSKVKDQNYYSVAVNAGYYVTPNAKVYVEGAWNRVTNKKGNTSLYDHNNNTSDYSKNGAGIENYNFITTAGLKYTF
relative cleavage efficiency [1]: less than 3.0% | relative cleavage efficiency [2]: less than 3.0% | relative cleavage efficiency [3]: less than 3.0% | relative cleavage efficiency [4]: less than 3.0% | relative cleavage efficiency [5]: less than 3.0% | relative cleavage efficiency [6]: less than 3.0% | relative cleavage efficiency [7]: less than 3.0% | relative cleavage efficiency [8]: less than 3.0% | relative cleavage efficiency [9]: less than 3.0% | relative cleavage efficiency [10]: less than 3.0% | relative cleavage efficiency [11]: less than 3.0% | relative cleavage efficiency [12]: less than 3.0% | relative cleavage efficiency [13]: less than 3.0% | relative cleavage efficiency [14]: less than 3.0% | relative cleavage efficiency [15]: less than 3.0% | relative cleavage efficiency [16]: less than 3.0% | relative cleavage efficiency [17]: less than 3.0% | relative cleavage efficiency [18]: less than 3.0% | relative cleavage efficiency [19]: less than 3.0%

B3: OmpT protease variant OmpT D97V (protein)
chain: STETLSFTPDNINADISLGTLSGKTKERVYLAEEGGRKVSQLDWKFNNAAIIKGAINWDLMPQISIGAAGWTTLGSRGGNMVDQDWMDSSNPGTWTVESRHPDTQLNYANEFDLNIKGWLLNEPNYRLGLMAGYQESRYSFTARGGSYIYSSEEGFRDDIGSFPNGERAIGYKQRFKMPYIGLTGSYRYEDFELGGTFKYSGWVESSDNDEHYDPGKRITYRSKVKDQNYYSVAVNAGYYVTPNAKVYVEGAWNRVTNKKGNTSLYDHNNNTSDYSKNGAGIENYNFITTAGLKYTF
relative cleavage efficiency [1]: less than 3.0% | relative cleavage efficiency [2]: less than 3.0% | relative cleavage efficiency [3]: less than 3.0% | relative cleavage efficiency [4]: less than 3.0% | relative cleavage efficiency [5]: less than 3.0% | relative cleavage efficiency [6]: less than 3.0% | relative cleavage efficiency [7]: less than 3.0% | relative cleavage efficiency [8]: less than 3.0% | relative cleavage efficiency [9]: less than 3.0% | relative cleavage efficiency [10]: less than 3.0% | relative cleavage efficiency [11]: less than 3.0% | relative cleavage efficiency [12]: less than 3.0% | relative cleavage efficiency [13]: less than 3.0% | relative cleavage efficiency [14]: less than 3.0% | relative cleavage efficiency [15]: less than 3.0% | relative cleavage efficiency [16]: less than 3.0% | relative cleavage efficiency [17]: less than 3.0% | relative cleavage efficiency [18]: less than 3.0% | relative cleavage efficiency [19]: less than 3.0%

B4: OmpT protease variant OmpT D97A (protein)
chain: STETLSFTPDNINADISLGTLSGKTKERVYLAEEGGRKVSQLDWKFNNAAIIKGAINWDLMPQISIGAAGWTTLGSRGGNMVDQDWMDSSNPGTWTAESRHPDTQLNYANEFDLNIKGWLLNEPNYRLGLMAGYQESRYSFTARGGSYIYSSEEGFRDDIGSFPNGERAIGYKQRFKMPYIGLTGSYRYEDFELGGTFKYSGWVESSDNDEHYDPGKRITYRSKVKDQNYYSVAVNAGYYVTPNAKVYVEGAWNRVTNKKGNTSLYDHNNNTSDYSKNGAGIENYNFITTAGLKYTF
relative cleavage efficiency [1]: < 3% | relative cleavage efficiency [2]: < 3% | relative cleavage efficiency [3]: < 3% | relative cleavage efficiency [4]: less than 3% | relative cleavage efficiency [5]: less than 3% | relative cleavage efficiency [6]: less than 3% | relative cleavage efficiency [7]: less than 3% | relative cleavage efficiency [8]: less than 3% | relative cleavage efficiency [9]: < 3% | relative cleavage efficiency [10]: < 3% | relative cleavage efficiency [11]: < 3% | relative cleavage efficiency [12]: less than 3% | relative cleavage efficiency [13]: 3.8% | relative cleavage efficiency [14]: less than 3% | relative cleavage efficiency [15]: < 3% | relative cleavage efficiency [16]: < 3% | relative cleavage efficiency [17]: less than 3% | relative cleavage efficiency [18]: < 3% | relative cleavage efficiency [19]: < 3%

B5: OmpT protease variant OmpT D97E (protein)
chain: STETLSFTPDNINADISLGTLSGKTKERVYLAEEGGRKVSQLDWKFNNAAIIKGAINWDLMPQISIGAAGWTTLGSRGGNMVDQDWMDSSNPGTWTEESRHPDTQLNYANEFDLNIKGWLLNEPNYRLGLMAGYQESRYSFTARGGSYIYSSEEGFRDDIGSFPNGERAIGYKQRFKMPYIGLTGSYRYEDFELGGTFKYSGWVESSDNDEHYDPGKRITYRSKVKDQNYYSVAVNAGYYVTPNAKVYVEGAWNRVTNKKGNTSLYDHNNNTSDYSKNGAGIENYNFITTAGLKYTF
relative cleavage efficiency [1]: < 3% | relative cleavage efficiency [2]: < 3% | relative cleavage efficiency [3]: 39% | relative cleavage efficiency [4]: less than 3% | relative cleavage efficiency [5]: less than 3% | relative cleavage efficiency [6]: less than 3% | relative cleavage efficiency [7]: less than 3% | relative cleavage efficiency [8]: less than 3% | relative cleavage efficiency [9]: 6.9% | relative cleavage efficiency [10]: 7.2% | relative cleavage efficiency [11]: 3.4% | relative cleavage efficiency [12]: less than 3% | relative cleavage efficiency [13]: 6.5% | relative cleavage efficiency [14]: less than 3% | relative cleavage efficiency [15]: < 3% | relative cleavage efficiency [16]: < 3% | relative cleavage efficiency [17]: less than 3% | relative cleavage efficiency [18]: < 3% | relative cleavage efficiency [19]: 49%
